# Measured values reported in patent US6953656B2, “Direct, externally imposed control of polypeptides” (Massachusetts Institute of Technology, priority 2000, dated 2005).
# “Also recorded” adds a separate entry of the source. Where no end group is shown, it is not given here.
# How the values were obtained:
# [1] = biological target: thrombin (Homo sapiens, UniProt P00734); conditions: cited from earlier work
# [2] = biological target: T1, Ribonuclease S (S-protein) (Bos taurus, UniProt P61823); assay: RNase S activity assay: increase in acid soluble nucleotides (A280) during hydrolysis of poly-(C), with or without 1 GHz RFMF; type: biochemical
# T1 construct: incubated with the rest of the Ribonuclease S complex, the S-protein; purchased Novagen, Madison, Wis
# T1 sequence (P61823 47-150 limits assumed): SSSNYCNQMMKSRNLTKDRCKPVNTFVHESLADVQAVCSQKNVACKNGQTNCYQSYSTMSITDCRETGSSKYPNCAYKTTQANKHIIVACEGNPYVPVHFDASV
# [3] = biological target: T1, Ribonuclease S (S-protein); assay: as above; type: biochemical; conditions: for RNase S activity (digested polyC, A280) with the RFMF on compared with RFMF off: 37° C., as a function of reaction time
# Description: In this example, ribonuclease S was associated with a gold nanocrystal modulator (the system described in Example 1). The activity of the enzyme was controlled by induction heating of the modulator using an alternating magnetic field. The frequency of the alternating magnetic field was 1 GHz in the radiofrequency range. Accordingly, the alternating magnetic field is referred to as a radiofrequency magnetic field (RFMF). The modulator S-peptide and S-protein complex was incubated with the substrate, polyC, in solution at 37° C. The tube containing the sample was placed in a coil inside which the RFMF was generated and switched on. Activity was monitored by measuring the amount of digested polyC in the solution. PolyC was purified from the rest of the sample by precipitation with trichloroacetic acid (TCA). The activity was the amount of digested polyC, which is determined by the optical absorption of the sample at 280 nm.
# The assay for measuring RNase activity was based on the measurement of increase in acid soluble nucleotides during the hydrolysis of poly-(C) (FIG. 14(a)). All concentrations were expressed as the final concentrations in the assay system. The S-protein (Novagen, Madison, Wis.) with various concentrations of S18 peptide was pre-incubated in 20 mM Na-phosphate buffer, pH 6.0; 100 mM NaCl at 37° C. for 10 minutes followed by initiating the reaction by the addition of the substrate, 0.39 mM poly [C] (sigma). At different time intervals, aliquots were quenched with 5% trichloroacetic acid (TCA). The reaction mixture was kept on ice for 5 minutes and subsequently spun at 13,000 rpm (Biofuge A) for 10 min.
# Alternating magnetic fields are generated by applying an electric current to a copper coil that coils around a quartz cuvette. Currents with frequencies in the radio frequency range are obtained by using a RF generator with a current amplifier. The RF is pulsed at 15 second intervals. The RF power levels are varied from −8 dBm to −0.1 dBm. The MF frequency used is 1 GHz.
molecule,measurement,setting,value
"NC(N)=NCCC[C@H](NC(=O)[C@@H]1CCCN1C(=O)[C@H](N)Cc1ccccc1)C(=O)CCl [PPACK, D-Phe-L-Pro-L-Arg-chloromenthy ketone]",Inhibition of thrombin activity,[1],inhibitory effect
Au-S18: S18 peptide covalently linked via N-terminal cysteine to a single 1.4 nm gold nanocrystal; tested complexed with S-protein (CGGKETAAAKFERQHMDS; also: linked via N-terminal cysteine to a 1.4 nm gold nanocrystal),"Enzymatic activity when combined with S-protein, no RF (RF OFF state)",[2]; listed as gold nanoparticle linked S-peptide,indistinguishable from the S-peptide without the nanoparticles
same,RF power at the 50% activity,[3]; 1 GHz RFMF,−4 dBm
same,"Enzymatic activity when combined with S-protein, no RF (RF OFF state)",[3],active
same,Effect of higher RF levels on RNase S activity,"[3]; RF −4, −3, −2 to −1 dBm, 1 GHz",drastic effect
same,Effect of low RF levels on RNase S activity,"[3]; RF −8 to −5 dBm, 1 GHz",no significant effect
same,Activity once recovered after RF,[3]; after recovery time,fully active
same,RNase S activity with the RFMF on compared with RFMF off as a function of modulator-S-peptide concentration,"[3]; modulator linked to S-peptide, RFMF 1 GHz, entire concentration range",significantly less than with the RFMF off
same,"RNase S activity (digested polyC, A280) with the RFMF on compared with RFMF off","[3]; modulator linked to S-peptide, RFMF 1 GHz, listed as Au-S18/S peptide",reduced
same,"RNase S activity (digested polyC, A280) with the RFMF on compared with RFMF off","[3]; modulator linked to S-peptide, RFMF 1 GHz, listed as gold nanoparticle linked S-peptide",transiently halting the enzyme activity
same,"RNase S activity (digested polyC, A280) with the RFMF on compared with RFMF off","[3]; modulator linked to S-peptide, RFMF 1 GHz, listed as modulator S-peptide-S-protein complex",less than with the RFMF off
"CGAGAG-AETEYDSLYPEDDL (CGAGAGAETEYDSLYPEDDL; thrombin inhibitory peptide: fibrin 414-27) [414-427, fibrin gamma chain fragment peptide]",Inhibition of thrombin activity,[1],strongly inhibit
"CGAGAG-NGDFEEIPEEYL (CGAGAGNGDFEEIPEEYL; thrombin inhibitory peptide: hirudin 53-64) [hirugen53-64, fragment of Hirudin]",Affinity for thrombin,[1],very high affinity
"CGAGAG-VRPEHPAETEYDSLYPEDDL (CGAGAGVRPEHPAETEYDSLYPEDDL; thrombin inhibitory peptide: fibrin 408-27) [408-427, fibrin gamma chain fragment peptide]",Inhibition of thrombin activity,[1],strongly inhibit
Hirudin,Affinity for thrombin,[1],extremely high affinity
same,Inhibition of thrombin activity,[1],inhibits the enzymatic cleavage of fibrinogen by thrombin
S15: residues 1 to 15 of the wild type S-peptide of ribonuclease S (KETAAAKFERQHMDS) [reference compound],"Enzymatic activity when combined with S-protein, no RF (RF OFF state)",[2]; listed as S-peptide with only the N-terminal 15 residues,completely restored the enzymatic activity
same,"Enzymatic activity when combined with S-protein, no RF (RF OFF state)",[3],full enzymatic activity
n-CGGKETAAAKFERQHMDS-c (S18 peptide),"Enzymatic activity when combined with S-protein, no RF (RF OFF state)",[3],restored the RNase S enzyme activity; also recorded: indistinguishable from that of the S15 native peptide
